Experimental data taken from US20220356230A1.
“And” between values parts separate entries of the source, which are not always exact repeats. Identical values can stand only once.

Tests used:
[1] = target: SARS-CoV-2 Spike Protein (Accession number MN908947.3, amino acids 16-1211) on pseudotyped VSV VLPs (SARS-CoV-2) (UniProt P0DTC2)
[2] = target: VLPs expressing VSV only (negative binding control) (vesicular stomatitis virus)
[3] = target: Bt-MERS.hFc (mAb2664-L2) (MERS-CoV) (UniProt K9N5Q8); assay: Luminex bead assay, supernatant
[4] = target: MERS.hFc (mAb2664-L1) (MERS-CoV) (UniProt K9N5Q8); assay: Luminex bead assay, supernatant
[5] = target: MERS.mFc (mAb2663-L1) (MERS-CoV) (UniProt K9N5Q8); assay: Luminex bead assay, supernatant
[6] = target: SARS-CoV-2 spike protein (S-wt, Wuhan-Hu-1, NCBI Accession Number MN908947.3) on VSV-SARS-CoV-2-S pseudoparticles (SARS-CoV-2) (UniProt P0DTC2); assay: cell-based or functional assay

Row | Substance | Ratio VSV/Spike:VSV [1] | Antibody Binding Signal (RLU) [2] | Binding signal (MFI) [3] | Binding signal (MFI) [4] | Binding signal (MFI) [5] | mAb neutralization potency (IC50 (M)) [6]
1 | IgG1 Isotype Control (antibody) | 1 and 2 |  |  |  |  | 
2 | mAb10933 (antibody) |  | 82 RLU and 29 RLU | 26 MFI | 21 MFI | 22 MFI | 
3 | mAb10934 (antibody) |  |  |  |  | 77 MFI | 5.44e-11 M
4 | mAb10936 (antibody) |  |  | 32 MFI | 26 MFI | 32 MFI | 1.11e-10 M
5 | mAb10987 (antibody) |  |  |  |  |  | 4.06e-11 M
